Laboratory results as given in article PMC8879280, “A Low-Activity Polymorphic Variant of Human NEIL2 DNA Glycosylase”.

T1: hNEIL2 R103W R103W (Homo sapiens) (UniProt Q969S2)
T1 sequence: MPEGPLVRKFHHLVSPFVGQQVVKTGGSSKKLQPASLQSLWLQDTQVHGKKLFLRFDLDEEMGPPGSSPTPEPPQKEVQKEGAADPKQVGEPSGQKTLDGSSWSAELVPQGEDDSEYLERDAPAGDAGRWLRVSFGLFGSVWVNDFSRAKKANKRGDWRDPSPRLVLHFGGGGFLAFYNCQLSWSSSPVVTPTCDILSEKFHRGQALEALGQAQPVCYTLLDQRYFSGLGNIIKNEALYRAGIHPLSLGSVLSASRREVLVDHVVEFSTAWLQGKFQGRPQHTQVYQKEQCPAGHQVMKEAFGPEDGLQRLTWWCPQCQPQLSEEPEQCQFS

T2: hNEIL2 WT (Homo sapiens) (UniProt Q969S2)
T2 sequence: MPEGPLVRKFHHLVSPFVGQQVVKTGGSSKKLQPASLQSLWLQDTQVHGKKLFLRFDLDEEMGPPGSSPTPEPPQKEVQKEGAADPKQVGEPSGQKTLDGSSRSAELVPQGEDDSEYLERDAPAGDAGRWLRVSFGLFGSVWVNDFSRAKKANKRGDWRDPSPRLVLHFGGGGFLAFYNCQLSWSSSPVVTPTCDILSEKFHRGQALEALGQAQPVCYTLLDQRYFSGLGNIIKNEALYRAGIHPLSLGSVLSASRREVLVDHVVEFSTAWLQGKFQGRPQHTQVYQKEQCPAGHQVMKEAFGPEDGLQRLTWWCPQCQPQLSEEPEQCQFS

T3: hNEIL2 P304T P304T (Homo sapiens) (UniProt Q969S2)
T3 sequence: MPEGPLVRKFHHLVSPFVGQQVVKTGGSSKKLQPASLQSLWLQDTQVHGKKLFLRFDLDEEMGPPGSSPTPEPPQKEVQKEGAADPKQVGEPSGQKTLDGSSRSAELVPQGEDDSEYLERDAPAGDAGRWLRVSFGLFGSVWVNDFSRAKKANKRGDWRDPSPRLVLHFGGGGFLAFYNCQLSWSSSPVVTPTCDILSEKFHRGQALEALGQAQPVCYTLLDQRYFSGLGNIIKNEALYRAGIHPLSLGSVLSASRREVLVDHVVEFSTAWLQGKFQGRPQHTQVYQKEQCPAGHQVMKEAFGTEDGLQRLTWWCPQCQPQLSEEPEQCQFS

T4: hNEIL2 WT (Homo sapiens, UniProt Q969S2 1-332)
T4 sequence: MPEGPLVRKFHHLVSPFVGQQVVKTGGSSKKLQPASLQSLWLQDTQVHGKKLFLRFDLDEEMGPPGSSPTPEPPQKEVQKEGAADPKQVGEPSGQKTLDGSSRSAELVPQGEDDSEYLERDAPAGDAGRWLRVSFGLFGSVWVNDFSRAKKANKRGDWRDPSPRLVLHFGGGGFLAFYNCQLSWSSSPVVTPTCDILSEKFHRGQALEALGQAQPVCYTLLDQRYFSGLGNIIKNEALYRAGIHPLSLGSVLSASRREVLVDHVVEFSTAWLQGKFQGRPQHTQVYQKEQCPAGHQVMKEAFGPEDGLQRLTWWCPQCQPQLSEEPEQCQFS

T5: hNEIL2 P304T (Homo sapiens, UniProt Q969S2 1-332, P304T)
T5 sequence: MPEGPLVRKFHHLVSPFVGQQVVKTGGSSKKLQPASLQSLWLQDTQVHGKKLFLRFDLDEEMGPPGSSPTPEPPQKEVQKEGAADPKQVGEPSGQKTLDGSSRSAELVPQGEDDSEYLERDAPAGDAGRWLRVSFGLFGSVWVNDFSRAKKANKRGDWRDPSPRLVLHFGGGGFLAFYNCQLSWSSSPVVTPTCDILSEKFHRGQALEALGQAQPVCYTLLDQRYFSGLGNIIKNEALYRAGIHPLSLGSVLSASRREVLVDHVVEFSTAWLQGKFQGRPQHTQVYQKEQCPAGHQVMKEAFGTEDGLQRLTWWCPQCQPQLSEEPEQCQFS

T6: hNEIL2 R103W (Homo sapiens, UniProt Q969S2 1-332, R103W)
T6 sequence: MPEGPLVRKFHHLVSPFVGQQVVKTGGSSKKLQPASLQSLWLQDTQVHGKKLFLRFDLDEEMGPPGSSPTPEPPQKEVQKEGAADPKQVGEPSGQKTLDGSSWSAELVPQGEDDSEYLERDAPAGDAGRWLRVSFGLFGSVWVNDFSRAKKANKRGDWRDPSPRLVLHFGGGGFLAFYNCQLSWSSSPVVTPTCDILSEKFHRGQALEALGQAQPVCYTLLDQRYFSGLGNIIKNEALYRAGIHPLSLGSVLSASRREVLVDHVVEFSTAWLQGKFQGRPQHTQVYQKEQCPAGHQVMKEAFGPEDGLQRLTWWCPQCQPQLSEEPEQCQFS


What was measured:
[1] = target: T1, hNEIL2 R103W R103W (Homo sapiens); test: EMSA; settings: THF (AP site analog) at position 21 of strand 1 (N); 25 mM potassium phosphate pH 7.5, 5 mM MgCl2, 1 mM DTT, 0.5 mg/mL BSA, 10% glycerol; 35 nM bubble or 100 nM duplex ligand; 5 min on ice, 8% native PAGE at 4 C
[2] = target: T2, hNEIL2 WT (Homo sapiens); test: EMSA; settings: THF (AP site analog) at position 21 of strand 1 (N); 25 mM potassium phosphate pH 7.5, 5 mM MgCl2, 1 mM DTT, 0.5 mg/mL BSA, 10% glycerol; 35 nM bubble or 100 nM duplex ligand; 5 min on ice, 8% native PAGE at 4 C
[3] = target: T3, hNEIL2 P304T P304T (Homo sapiens); test: EMSA; settings: THF (AP site analog) at position 21 of strand 1 (N); 25 mM potassium phosphate pH 7.5, 5 mM MgCl2, 1 mM DTT, 0.5 mg/mL BSA, 10% glycerol; 35 nM bubble or 100 nM duplex ligand; 5 min on ice, 8% native PAGE at 4 C
[4] = target: T4, hNEIL2 WT; test: EMSA; 5 mM Mg2+; apparent, sigmoidal fit; 25 mM potassium phosphate pH 7.5, 5 mM MgCl2, 1 mM DTT, 0.5 mg/mL BSA, 10% glycerol; 35 nM bubble or 100 nM duplex ligand; 5 min on ice, 8% native PAGE at 4 C; settings: protein: recombinant; tags: C-terminal GHHHHHH; label: 32P; 10-nt central bubble between two 15-bp arms, blunt
[5] = target: T5, hNEIL2 P304T; test: as above; settings: protein: recombinant; tags: C-terminal GHHHHHH; label: 32P; 10-nt central bubble between two 15-bp arms, blunt
[6] = target: T6, hNEIL2 R103W; test: as above; settings: protein: recombinant; tags: C-terminal GHHHHHH; label: 32P; 10-nt central bubble between two 15-bp arms, blunt

| Molecule | K half [1] [µM] | K half [2] [nM] | K half [3] [µM] | apparent K (half saturation) [4] [nM] | apparent K (half saturation) [5] [µM] | apparent K (half saturation) [6] [µM] |
| --- | --- | --- | --- | --- | --- | --- |
| CCTGCATGGGCGGCAGAACTNGAGGCCATCCTCACCATCC / GGATGGTGAGGATGGGAGGTTCCCTTGCCGCCCATGCAGG [40F//40bubble (THF bubble)] | 10.4 | 1000 | 6.4 | – | – | – |
| 40C//40bubble (undamaged bubble) (dsDNA) DNA 1: CCTGCATGGGCGGCAGAACTCGAGGCCATCCTCACCATCC DNA 2: GGATGGTGAGGATGGGAGGTTCCCTTGCCGCCCATGCAGG | – | – | – | 1000 ± 100 | 7 ± 0.3 | 11.7 ± 0.7 |
